The values below come from a protein production outcome set (Wang et al. 2014).

A short description of the series: label from the status in PepcDB records.
Turning to “MSIATTPLHTALSLPQIQSFAASDMAAIDTLIHDRLTSDIVLINQIADHIICSGGKRLRPMLTMLAGHAIGPTGPHHHQLAAIIEFIHTATLLHDDVVDGSELRRSRSTANALWGNAPSVLVGDFLYSRSFQLMTELANLEVMQILAETTNRISEGEVLQLLHVHNPDTDETTYLSVIERKTAILFAAAAQLGALASHADTQTQTRMYEYGMQLGYAFQITDDVLDYTANNSQLGKNLGDDLAEGKATLPVIHAMTHSDAATCERLRMIISKGDSDAMPEVLNAIRTTGSLDYSRQRASAYAATAERALDGLPETEAVAALRGLARYAVQRTY”, the protein production entry was “failed”. For “MSIDVHPNNYAYQTNEPYKNFEAEDKLIGHLQDFVDGHQEDVKRIGSKMSEMKAKFEEKFDDLTNRLENMEGALVEINNALLNHQDDIQDQYTRIVNVGLVVDTVESHLDWKIEELEKKLNNSNEFSE” the value was “not failed”; for “MSIELDATTYIHAKPTTAHSYILPKIFDVLGDHFDGSAENDVFDLGCGTGGAAAALTKAGYDVVGVDPSSDGIGKANIRHPGLALSVGSAYDDLSREYGSFSAVISLEVVEHVYDPKTFTSTMFDLVKPGGIAVISTPYHGYLKNLALAATGKMDDHFMPLKDHGHIKFWSKNTLRTLLLETGFANVRFEYVGRIPAFAKSMIAVADKPFSQSARHGAVRRSSPEVVSTACRQKKP”, “failed”.

Regarding “MSIESDMIHVEVVYALPHEQRVFNLVVNNHATVEEIIRQSGVLELYPEIDLAKNKVGVFSRNVKLDATVRDKDRIEIYRPLLADPKEIRRKRAEQAKAAGNADPVTGGKPNALRK”, the protein production entry was “failed”.

Regarding “MSIHVNEANLTFHLQTDHTSYIFQIMKNGEAGQIYYGPRIHVQPTYQNLMSQEWRDATPSLNEENPNFQPATIKAEYASLGKGDFRQPAFQVTQANGSRITELTYDHYQLLTGKQRLANLPSTFDDTDDDAQTLVVSFNDRITGLALDLNYSIFPHQDVIVKSAKFTNPSSEKLVLNRALSSQLDLPDANYDLIQFSGTWARERHLYRHPLRPGMQSISSLRMASSHQQNPFMMLARPQTTDEQGAVFGFNLVYSGNFLDAIEVDQYSTSRILTGINPDEFGWNLAPQATFQTPEAILSYTSAGMNQLSQQMASFYQQHLVNPRFAHEERPVLINNWEATYFDFNEAKLMTIVNQAKRLGIEMFVLDDGWFGHRDDDTTSLGDWFVDQRKFPDGIEHFSQAVHQQGMKFGLWFEPEMVSVDSDLYQQHPDWLIHAPKSTPTPGRHQFVLDMARPEVVDYLFKLMSQMIESANLDYIKWDMNRYATEMFSSRLTSDQQLELPHRYILGVYQLYARLTQAYPNVLFESCASGGGRFDLGMMYYAPQAWTSDDTDAAERLLIQFGTSYGYPQAMMGAHVSAVPNDQMGRITSLKTRGAVAFFGDLGYELDITKMAPTELDQVKKQVAFYKCYRQLFQFGKFYRIDSPFVEDGNVTSWQVVSDDQKQAIAARYQLLNHPNAPYTRFYFKGLRPNQRYQINDDPSTYYGDELMNAGYFVPTILADGQESKDFYTQLFVVTAILEHHHHHH”, the protein production entry was “not failed”.

“MSIIFILKMSKQSEQILEEQLLIQLHKLGYEKVILPNEDALLLNLKKQLEKHNKITFSKAEFDKVLNIVNKGSVFEKAKILRQRQHIIRDNGDNLYFEFLNTDYWCQNEYQVTNQLSQEGRYLNRYDVTLLINGLPLVQIELKRRGLELKEAFNQIDRYRKHSFGSGHGLYHFVQLFVISNGVNTKYFGNFGIHKQEYLQTFHWTDENNKPLNNILNGFTDTFLEPCHISKMICKYIVLHETEKKLMVLRPYQYFAVENIIKKVKENEVLNGYDINKNGYIWHTTGSGKTLTSFKASQILSNIPAIKKVVFVVDRKDLDYQTNQEYEKFSQGCVSSVGNTDDLIKKFNDPAERIIVTTIQKLNNAISGKNIYKMKAMQDQRMVFIFDECHRSQFGDTHKNIVSYFTNIQLFGFTGTPILVENANGEKTTASLFGKCLHKYVITDAIRDENVLRFSVEYIQTFKQKEHIVDLKIEQINETEVFEAPERKEAIVNYILQHHKQKTQQGKYCAMMCVQDIDSVIQYYEILKAMKKAGEHQLKIITIFSFAQNEDPLDYEIKTELSVVEEPKALYGLPPHRRELLDAYIGDFNQLYDTAHSTKDSQSFYTYYNDVAKKAKNNEMDILLVANMFLTGFDSKYLNTLYVDKNLQYHGLIQAFSRTNRTHDKNKTQGNIVCFRNLKDKTDEAITLFSNREAIDEVIVAPYETYVEEFNKAVNQLKAIVPNVDSVDDLYTEEDQLKFILAFRNMIRLHKKMSHYTEFTWDDLEIEEQSFLDYSSKYQDLKDSIVHKSDKEKTSILDDIDFELELIKKDTINVSYIVQLLFKLKVKKGKKDKEEVEKEIFNLLNTEVSLRSKRELIEKFIKENMSKIVEAEDIVDEFTRFWNEEQQKAFDELVQDENLSAERTQHLIEGYLFSEQEPLRDEILKLRNEGRPSALQAKDISNRILQRIKDFVNTFINGMNIAA”: the protein production entry is recorded as “failed”. As for “MSIKKLWVIPKDGYLLLLDYDSDEEEEQAHSEVKRPAFGKHENMPPHVEADEDIRDEQDSMLDKSGENVSFSEEWQRFARSVETPMENWNLLSGEQQVRNASELDLMEVQNPVTHDDGNANPEEVVGDTRKKINNKLCEQKFDMDIQKFNEEQEKSVNNYQKEQQALKLSECSQSPTMEAIEDMHEKSMEGLMNMETNNYDMLFDVDGEETL”, the protein production entry was “failed”. On to “MSIKYLYDRKKIAVTYGEEKYSYADIIKYVNYYSEFLDISKGDRVALMMENRPESIFSFFSIWAKKGIALSLDAGYTVEQLAFVLNDSKPKYIFVSNKIKEVVEKANEQVGNIVKIMVVDEITLPTDYVIKQEEYENDSNEDLAVIVYTSGTTGNPKGVMITYENIKTNMEGVRAVDLVTETDVILAMLPYHHIMPLCFTLILPMYMGVPIVLLTEISSASLLKALQENRVTVILGVPRVWEMLDKAIMTKINQSSLAKFMFKMASKINSMSIRKMLFSKVHKQFGGNIRLMVSGGAKIDKNILEDFRTMGFCAIQGYGMTETAPIITFNVPGRERSDSAGEVIPNVEVKIADDGEILVKGKNVMKGYYNNEQATKEAFDKDGWFHTGDLGKMDGKYLIIIGRKKEMIVLPNGKNIDPNDIEAEIIKNTDLIKEIAVTEYKEQLLAIIYPDFDQIKAKQIVNIKDAIKWEVIDKYNVTAPNYKKIHDIKIVKEELPKTRIGKIRRFMLKDLIEEKTENTDKKEAKKIIEVPAEMKEKFDIINKYMDERYQKAIDLDSHIELDLGFDSLDIVEFMNFLNSTFEITIVEQDFVENKTISAIIKLINDKAGKLVEKIDKNENLKKIIESDSNVKLPKDARYAKVLKFILSLMFRYYFKYKYRGKENLGEGAGIIVGNHQSYLDAFMLNNAFTYKELGGNYYIATALHFKSNFMKYLAGHGNIILVDANRNLKNTLQAAAKVLKSGKKLLIFPEGARTRDGQLQEFKKTFAILSKELNVPIYPFVLKGAYEAFPYNKKFPKRNNISVQFLEKIEPNDKTVEELVEETKNNIAKNYY”, for which the protein production entry is “failed”.

Consider “MSILDILILLAPIFFVIVLGWFAGHFGSYDAKSAKGVSTLVTKYALPAHFIAGILTTSRSEFLSQVPLMISLIIGIVGFYIIILLVCRFIFKYDLTNSSVFSLNSAQPTFAFMGIPVLGSLFGANEVAIPIAVTGIVVNAILDPLAIIIATVGESSKKNEESGDSFWKMTGKSILHGLCEPLAAAPLISMILVLVFNFTLPELGVKMLDQLGSTTSGVALFAVGVTVGIRKIKLSMPAIGIALLKVAVQPALMFLIALAIGLPADQTTKAILLVAFPGSAVAAMIATRFEKQEEETATAFVVSAILSLISLPIIIALTA”, for which the protein production entry is given as “failed”. Then “MSIPFSNTHYRIPQGFGNLLEGLTREILREQPDNIPAFAAAYFESLLEKREKTNFDPAEWGSKVEDRFYNNHAFEEQEPPEKSDPKQEESQISGKEEETSVTILDSSEEDKEKEEVAAVKIQAAFRGHIAREEAKKMKTNSLQNEEKEENK”, with “failed”; and “MSIPLLEYKPSSQNQRVPGYEVPNEDTPRIYRIEDAAYDSELKELIWATYRQVFSEHVILKFFRQGNLESQLKNRAISVRDFVRGLAKSEAFKTLVIKSNSNYRLVELALKRLLGRAPYNKDEEIAWSIKIATNGWDGFVDALLDSEEYQSNFGENIVPYQRRRYKDRPFNLVTPRYGNYWRDKLESERYIEGDIKNFLELAKSIEIKTVTFTPVSTANIKIPDTTRNTTPTGIPISVNPSANFPVRLEHHHHHH”, with “failed”.

For the sequence “MSIQAPPRLLELAGQSLLRDQALSISAMEELPRVLYLPLFMEAFRRRHFQTLTVMVQAWPFTCLPLGSLMKTLHLETLKALLEGLHMLLTQKDRPRRWKLQVLDLRDVDENFWARWPGAWALSCFPETMSKRQTAEDCPRMGEHQPLKVFIDICLKEIPQDECLRYLFQWVYQRRGLVHLCCSKLVNYLTPIKHLRKSLKIIYLNSIQQLEIRNMSWPRLIRKLRCYLKEMKNLRKLVFSRCLQNPLENLELTYGYLLEEDMKCLSQYPSLGYLKHLNLSYVLLFRISLEPLGALLEKIAASLETLILEGCQIHYSQLSAILPGLSHCSQLTTFYFGRNCMSMGALKDLLCHTSGLSKLSLETYPAPEESLNSLVRVDWEIFALLRAELMCTLREVRQPKRIFIGPTPCPSCGSSPSEELELHLCC”, the protein production result is “failed”. In the case of “MSIRNPNSTLLYRAHSRPPVKLCAPPRSLLPSRRHFSAPRAVVSYPGIRFGFTSPEVLLNRSVVAFAASHEDSGESGVEVGKEKSDIDVEDDTSKEAWKQTLESFKEQVSKMQSVSSEAYSVNSQKAMTVLKETSEQLRIQAEKAKEELGTKAKVVSEEGREYILKAAEESPSDVKEIVEAFASTEDLKNVSRANDFHVGIPYGLLLLVGGFINFMVSGSIPAIRFGVILGGALFALSLASLKSHRKGESSTKFLKGQMAIVAIIFLRELRLLLSQKSTFLGFFTTLTSGGVLGFYLYKMVVKREKGPTLEDGGEDESSDGFVRSEG”, the protein production entry was “failed”.

Consider “MSIRPATHAGSWYSNRAQELSQQLHTYLIKSTLKGPIHNARIIICPHAGYRYCGPTMAYSYASLDLNRNVKRIFILGPSHHIYFKNQILVSAFSELETPLGNLKVDTDLCKTLIQKEYPENGKKLFKPMDHDTDMAEHSLEMQLPMLVETLKWREISLDTVKVFPMMVSHNSVDVDRCIGNILSEYIKDPNNLFIVSSDFCHWGRRFQYTGYVGSKEELNDAIQEETEVEMLTARSKLSHHQVPIWQSIEIMDRYAMKTLSDTPNGERYDAWKQYLEITGNTICGEKPISVILSALSKIRDAGPSGIKFQWPNYSQSSHVTSIDDSSVSYASGYVTIG”, for which the protein production result is reported as “failed”. Take “MSIVIVGGNERMVCQYEDICKGYGCKAKVFAKEKGAMKKKIGAPDLMILFTGTVSHKMVNCAVEEAKKKSIPVCRCHTSSASALESILREYCALEHHHHHH”: the protein production entry is “failed”. “MSIYNSIGKQYSQTRVPDIRIVNAIINLLNLPKGSVIADIGAGTGGYSVALANQGLFVYAVEPSIVMRQQAVVHPQVEWFTGYAENLALPDKSVDGVISILAIHHFSHLEKSFQEMQRIIRDGTIVLLTFDIRLAQRIWLYDYFPFLWEDALRFLPLDEQINLLQENTKRRVEAIPFLLPHDLSDLFAAAAWRRPELYLKAEVRAGISSFALANQDLVEKGLELLTADLNNGEWIRKYGEIHHLQEIDIGYRFIYTTLDK”: the protein production entry was “not failed”.

“MSKANVYQQRPEPGVHAESPLHHAELHKLAGKTAAKAGIVLREKKLLGHLVLRGDAADPAFAAAVHQALGLELPVALTLVASGETSLQWLAPDEWLLIVPGGEEYAVEQRLRQALGEELHYAVVNVSGGQTLLELSGANVRELLMKSTSYDVHPSNFPVGKAVGSIFAKSQCVIRHTGEDTWELVVRRSFADYFWLWLQDASAEYGLQVAA”: the protein production result was “failed”. As to “MSKAQKRKRLNKYDGESKTPANKSTVDGGNPYPTLLRPTAEECRDVRDALLSLHGFPPEFANYRRQRLRSFSAVDDHDTQCNLKSETLNETEEESVLDGLVKILLSQNTTESNSQRAFASLKATFPKWDDVLNAESKSIENAIRCGGLAPKKAVCIKNILNRLQNERGRLCLEYLRGLSVEEVKTELSHFKGVGPKTVSCVLMFNLQHNDFPVDTHVFEIAKALGWVPKTADRNKTYVHLNRKIPDELKFDLNCLLYTHGKICSNCKKNVAKPKAKVASPDDCPLVGFYDLIV”, the protein production result is listed as “failed”.
